Reference: patent US7919587 (HYDROGENE LUND, dated 2011)

Target: the molecule itself
Assay: X-ray crystal structure, homotetramer
Protocol: Molecular replacement was carried out using the program MOLREP from the CCCP4i-program suite with the coordinates of bovine AQP1 (PDB entry 1J4N) (SEQ ID NO: 38) as the model. Using two copies of the model in the molecular replacement search, a clear solution with a correlation coefficient and R-factor of 34.3% and 53.1% respectively was found. The crystal packing was checked using the program O (30) and there were no overlaps between molecules. Automated model building was carried out using ARP/WARP (31) and the resulting model was docked to the correct sequence using GUISIDE2. The calculated electron density map at this stage was already of very good quality. Water molecules were picked using ARP/WARP. The model was subjected to multiple rounds of refinement in REFMAC5 (29), NCSREF (29) and CNS (32) with manual rebuilding in O between each round. During refinement, NCS restraints between the two molecules in the asymmetric unit (molecule A and B) were used. […] The R-factor and Rfree are 18.1% and 20.8% respectively. The quality of the structure was checked in PROCHECK (33).

B1: SoPIP2;1, plasma membrane aquaporin of spinach (other)
chain: MSKEVSEEAQAHQHGKDYVDPPPAPFFDLGELKLWSFWRAAIAEFIATLLFLYITVATVIGHSKETVVCGSVGLLGIAWAFGGMIFVLVYCTAGISGGHINPAVTFGLFLARKVSLLRALVYMIAQCLGAICGVGLVKAFMKGPYNQFGGGANSVALGYNKGTALGAEIIGTFVLVYTVFSATDPKRSARDSHVPILAPLPIGFAVFMVHLATIPITGTGINPARSFGAAVIFNSNKVWDDQWIFWVGPFIGAAVAAAYHQYVLRAAAIKALGSFRSNPTN
notes: also called PM28A; spinach aquaporin
B1: binds.
